Test results reported in patent publication US11739132B2, “Separation moieties and methods of use thereof” (Werewolf Therapeutics, Inc., priority 2019, dated 2023).
“Also recorded” adds a separate entry of the source. No end group written: not given here.

What was measured:
CTSL1 [1] = molecular target: T1, CTSL1 (Homo sapiens, UniProt P07711); test: In vitro FRET kinetics with CTSL1; assay type: biochemical
Description: (§1) Enzymes were activated and assayed following the manufacturer's recommendations.
(§2) For CTSL1, enzyme was activated by pre-incubation in assay buffer (50 mM MES, 5 mM DTT, 1 mM EDTA, pH=6) for 15 min. MSP-MS reactions were then started with the mixing of enzyme and substrate, at final CTSL1 concentration of 0.04 ng/μl (0.77 nM), and peptide substrate concentration at 500 nM.
Additional in vitro kinetic experiments were performed to characterize a new candidate motif for CTSL1 enzyme; the CTSL1_2 motif has the sequence […] (SEQ ID NO: 199). […] Yet, initial experiments with the CTSL1_2 FRET substrate were inconclusive, possibly due to artifacts in the FRET assay; therefore, a new FRET peptide construct was designed with the 9-mer sequence […] (SEQ ID NO: 236).
All of the FRET substrates used in these studies have a methoxycoumarin (Mca) fluorophore and dinitrophenyl-lysyl (Dnp) quencher pair at the N- and C-termini of the sequences, respectively.

Cathepsin K (CTSK) = molecular target: T2, Cathepsin K (CTSK) (Homo sapiens, UniProt P43235); test: Counter-screening of CTSL1 FRET substrates with Cathepsin K; assay type: biochemical; details: specific activity
T2 sequence (P43235 115-329): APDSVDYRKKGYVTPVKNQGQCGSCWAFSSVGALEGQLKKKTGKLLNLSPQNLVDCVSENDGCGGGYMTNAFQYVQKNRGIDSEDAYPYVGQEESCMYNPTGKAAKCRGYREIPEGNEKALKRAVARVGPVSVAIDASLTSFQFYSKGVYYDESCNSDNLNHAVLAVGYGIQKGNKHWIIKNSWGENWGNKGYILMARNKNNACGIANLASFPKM
Description: Counter-screening of CTSL1_1 and CTSL1_2 was performed with the enzyme Cathepsin K (CTSK). […] For comparison, the specific activity for reference substrates such as Z-LR-AMC and Z-FR-AMC is 15,000-25,000 pmol/min/μg, with the average value indicated by a dashed line in FIG. 47.

CTSL1 [2] = molecular target: T1, CTSL1; test: 30-mer tandem linker library MSP-MS, CTSL1; assay type: biochemical
Description: (§3) Protease specificity screening was performed using Multiplexed Substrate Profiling by Mass Spectrometry (MSP-MS), the method described in, e.g. O'Donoghue A. J. et al., Nat Methods., 2012; 9(11): 1095-1100. This method employs a physico-chemically diverse peptide library as substrates for proteases, and reactions are monitored over time with mass spectrometric detection of cleaved products. The resulting cleavages are assessed for specific cleavage in the enzyme-treated sample by comparison with results from a no-enzyme control incubation.
as §1, §2
This hypothesis was tested in the context of the hybrid linker design experiment. Shown in FIG. 46 are the results of cleavage of two matched 30-mer peptides with the following sequences:
(§4) To analyze the catalytic efficiency of candidate tandem linker designs, a tailored library approach using MSP-MS was applied. For the tailored library, a set of nineteen synthetic peptides, 30 amino acids in length (30-mers), were designed to test whether sequence context affects the efficiency of cleavage. Peptides were assayed in a multiplex format together as a substrate library with individual recombinant enzymes, using MSP-MS. For quantitative comparisons, kinetic analysis was performed over a time course, and results are reported either as a catalytic efficiency kcat/KM for well-behaved first-order kinetics, or as observed rates as kobs for more complex kinetic behavior.
(§5) Catalytic efficiency (kcat/KM) estimations were used to rank the top cleaved substrates in the MSP-MS reaction. Peptides were quantified by mass spectrometric label-free quantitation from the MS1 precursor ion peak areas for each peptide. Enzyme progress curves were modeled from six-time point measurements in GraphPad Prism. Data were fitted using non-linear least squares fitting to the first order kinetics equation:
(§6) [formula] where Y=percent product formation or substrate consumption, and t=time. The observed rate is a function of the enzyme concentration [E0], and an observed catalytic efficiency (kcat/KM) in units M^−1s^−1

Hepsin = molecular target: T3, Hepsin (Homo sapiens, UniProt P05981); test: 30-mer library counter-screening MSP-MS, Hepsin; assay type: biochemical
T3 construct: purchased R&D Systems (Bio-techne) 4776-SE
Description: as §3, §1
Hepsin was pre-activated overnight at 37° C. in the manufacturer recommended buffer: 100 mM TRIS, 10 mM CaCl2, 150 mM NaCl, 0.05% Brij-35, pH 8.0. Activity was measured with 2.4 or 24 nM enzyme in the buffer: 50 mM TRIS HCl at pH 7.4.
(§7) Counter-screening was performed against the enzymes Thrombin, Factor Xa and Hepsin using this library as well, and for calibration of activity, a positive-control peptide bearing favorable motifs for these enzymes was also designed (ALU30-19).
as §5, §6
(§8) Counter-screening with Thrombin, Factor Xa and Hepsin was also performed following the same analysis. The library peptide Alu30-19 was designed to include authentic sites for each enzyme, for comparison of overall cleavage efficiency as well as cleavage site specificity within each motif. The substrate designed for Factor Xa has the motif FNPR|TFGS (SEQ ID NO: 248), derived from the Factor Xa cleavage site in Thrombin. The substrate motif for Thrombin was FPR|, a common tool substrate motif. The substrate motif for hepsin was RKRR|GSRG (SEQ ID NO: 249) from filaggrin.

[3] = system: activated T cells relative to NK cells; details: cited from earlier work
[4] = cited from earlier work
Factor Xa = molecular target: T4, Factor Xa (Homo sapiens, UniProt P00742); test: 30-mer library counter-screening MSP-MS, Factor Xa; assay type: biochemical
T4 construct: purchased R&D Systems (Bio-techne) 1063-SE-010
Description: as §3, §1
Factor Xa was assayed at 4.7 nM enzyme, at 37° C. in the manufacturer recommended buffer: 50 mM TRIS, 10 mM CaCl2, 150 mM NaCl, pH 7.5.
as §7
as §5, with “Data were fitted using non-linear least squares fitting to the first order kinetics equation:” left out

MMP9 = molecular target: T5, MMP9 (Homo sapiens, UniProt P14780); test: 30-mer tandem linker library MSP-MS, MMP9; assay type: biochemical
T5 construct: purchased R&D Systems (Bio-techne) 911-MP-010
Description: as §3, §1
MMP9 was activated by incubation with 1 mM p-amino phenyl mercuric acetate (prepared from a stock at 100 mM in DMSO) for 24h at 37° C. in activation buffer: 50 mM TRIS HCl (pH 7.5), 10 mM CaCl2, 150 mM NaCl, 0.05% Brij35. The final enzyme concentration used for fluorescence assays was 2.5 nM.
To analyze the catalytic efficiency of candidate tandem linker designs, a tailored library approach using MSP-MS was applied. […] For quantitative comparisons, kinetic analysis was performed over a time course, and results are reported either as a catalytic efficiency kcat/KM for well-behaved first-order kinetics, or as observed rates as kobs for more complex kinetic behavior. […]

FAPα = molecular target: T6, FAPα (Homo sapiens, UniProt Q12884); test: 30-mer tandem linker library MSP-MS, FAPα; assay type: biochemical
T6 construct: purchased R&D Systems (Bio-techne) 930-ADB-010
T6 sequence (Q12884 1-760): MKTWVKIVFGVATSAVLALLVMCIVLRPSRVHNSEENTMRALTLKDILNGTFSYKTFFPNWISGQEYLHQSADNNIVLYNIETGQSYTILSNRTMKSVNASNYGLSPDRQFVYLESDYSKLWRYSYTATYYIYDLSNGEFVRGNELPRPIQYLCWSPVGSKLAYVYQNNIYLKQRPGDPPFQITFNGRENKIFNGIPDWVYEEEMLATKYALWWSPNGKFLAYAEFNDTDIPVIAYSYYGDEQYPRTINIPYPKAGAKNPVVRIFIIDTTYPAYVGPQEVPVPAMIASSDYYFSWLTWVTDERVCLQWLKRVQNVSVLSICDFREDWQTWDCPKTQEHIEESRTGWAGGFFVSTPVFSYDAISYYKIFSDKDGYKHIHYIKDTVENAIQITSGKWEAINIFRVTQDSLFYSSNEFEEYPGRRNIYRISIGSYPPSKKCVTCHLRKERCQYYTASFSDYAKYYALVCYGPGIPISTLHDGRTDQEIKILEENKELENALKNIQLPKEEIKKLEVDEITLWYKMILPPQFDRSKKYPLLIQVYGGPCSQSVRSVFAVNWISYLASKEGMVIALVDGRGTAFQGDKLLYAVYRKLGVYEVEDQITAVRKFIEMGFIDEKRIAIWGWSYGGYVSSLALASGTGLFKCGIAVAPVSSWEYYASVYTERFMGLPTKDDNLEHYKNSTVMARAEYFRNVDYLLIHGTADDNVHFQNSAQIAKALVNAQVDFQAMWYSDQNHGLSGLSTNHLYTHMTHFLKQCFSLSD
Description: as §3, §1
FAPα activity was tested with fluorescence detection using a generic Z-GP-AMC substrate. For FRET assays, the final enzyme concentration was 5 nM and the buffer was 50 mM TRIS HCl, 1 M NaCl, 1 mg/mL BSA, pH 7.5.
as §4, §5, §6

Thrombin = molecular target: T7, Thrombin (Homo sapiens, UniProt P00734); test: 30-mer library counter-screening MSP-MS, Thrombin; assay type: biochemical
T7 construct: purchased R&D Systems (Bio-techne) 2196-SE-200
Description: as §3, §1
Thrombin was activated following the manufacturer's recommended conditions by pre-incubation with the enzyme with thermolysin for 15 min, and then the thermolysin was quenched with 1,10 phenanthroline treatment. Activated thrombin was assayed at 1.2 nM in activation buffer: 50 mM TRIS HCl, 10 mM CaCl2, 150 mM NaCl, 0.05% (w/v) Brij-35, pH 7.5.
as §7, §5, §6, §8

[5] = system: full set of five targeted enzymes; thrombin, Factor Xa, and hepsin; test: 30-mer tandem linker design: comparison of cleavage efficiencies across enzymes; assay type: biochemical, human
Text: To generate the most efficient tandem linker, the cleavage efficiencies for each of the targeted enzymes toward the 30-mer library peptides can be compared (FIG. 64).
Replacement of the ADAM17_2 motif with ADAM17_i may also enhance activity toward FAP-alpha and CTSL1, even if ADAM17 activity enhancement is minor, and hepsin susceptibility would be predicted to be reduced.

[6] = matched 30-mer peptides SEQ ID NO: 207 (CTSL1_1) and 219 (CTSL1_2)

T3 sequence (P05981 163-417 limits assumed): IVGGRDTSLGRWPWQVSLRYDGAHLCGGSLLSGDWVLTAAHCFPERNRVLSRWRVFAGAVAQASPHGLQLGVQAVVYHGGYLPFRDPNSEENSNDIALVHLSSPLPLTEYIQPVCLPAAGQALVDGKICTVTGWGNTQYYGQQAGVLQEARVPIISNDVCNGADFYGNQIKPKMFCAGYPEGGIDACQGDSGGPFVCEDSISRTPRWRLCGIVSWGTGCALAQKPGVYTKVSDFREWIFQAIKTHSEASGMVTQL
T3 sequence (P05981 1-162 partner limits assumed): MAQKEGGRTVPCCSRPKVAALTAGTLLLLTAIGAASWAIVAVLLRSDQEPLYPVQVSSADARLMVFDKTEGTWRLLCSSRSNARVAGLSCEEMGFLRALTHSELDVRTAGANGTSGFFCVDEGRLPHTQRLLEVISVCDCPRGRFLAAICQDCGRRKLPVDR
T1 sequence (P07711 114-333): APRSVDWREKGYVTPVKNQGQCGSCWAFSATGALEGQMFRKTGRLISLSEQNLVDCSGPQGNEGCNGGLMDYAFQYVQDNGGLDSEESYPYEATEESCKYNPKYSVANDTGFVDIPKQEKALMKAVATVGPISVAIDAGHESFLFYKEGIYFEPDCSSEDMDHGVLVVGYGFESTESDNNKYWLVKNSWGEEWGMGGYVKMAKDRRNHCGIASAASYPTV
T4 sequence (P00742 235-488 limits assumed): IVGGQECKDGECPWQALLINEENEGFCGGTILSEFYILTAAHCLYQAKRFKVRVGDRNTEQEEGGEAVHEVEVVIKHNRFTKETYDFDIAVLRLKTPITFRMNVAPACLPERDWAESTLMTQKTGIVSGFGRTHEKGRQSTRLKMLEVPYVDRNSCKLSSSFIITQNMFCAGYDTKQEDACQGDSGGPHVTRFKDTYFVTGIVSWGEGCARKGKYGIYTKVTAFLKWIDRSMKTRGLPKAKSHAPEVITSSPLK
T4 sequence (P00742 41-179 partner limits assumed): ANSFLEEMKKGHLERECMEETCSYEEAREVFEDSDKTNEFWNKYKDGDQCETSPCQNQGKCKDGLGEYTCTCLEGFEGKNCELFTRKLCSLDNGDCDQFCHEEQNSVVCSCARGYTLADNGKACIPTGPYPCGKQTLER
T5 sequence (P14780 107-707 limits assumed): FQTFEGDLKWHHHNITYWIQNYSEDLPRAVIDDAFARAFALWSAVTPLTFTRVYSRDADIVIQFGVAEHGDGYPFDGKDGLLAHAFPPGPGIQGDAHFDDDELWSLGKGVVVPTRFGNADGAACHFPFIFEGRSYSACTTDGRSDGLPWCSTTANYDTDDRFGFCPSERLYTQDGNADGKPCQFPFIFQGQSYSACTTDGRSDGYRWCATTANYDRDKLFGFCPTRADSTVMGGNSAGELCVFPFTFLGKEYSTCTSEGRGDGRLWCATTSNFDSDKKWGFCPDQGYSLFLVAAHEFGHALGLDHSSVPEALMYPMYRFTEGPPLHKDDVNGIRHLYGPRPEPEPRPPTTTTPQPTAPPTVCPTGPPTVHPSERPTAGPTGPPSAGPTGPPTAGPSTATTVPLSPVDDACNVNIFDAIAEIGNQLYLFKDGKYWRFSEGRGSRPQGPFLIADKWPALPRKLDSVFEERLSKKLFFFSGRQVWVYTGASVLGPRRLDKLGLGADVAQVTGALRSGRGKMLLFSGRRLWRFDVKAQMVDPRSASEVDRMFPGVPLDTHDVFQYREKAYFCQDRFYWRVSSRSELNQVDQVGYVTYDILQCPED

ALFFSSPP (also: FRET fluorophore and quencher) [CTSL1_2]
Cleavage of 8-mer FRET substrate by CTSL1 (CTSL1 [1]; 8-mer FRET peptide, Mca/Dnp pair): not cleaved
Cleavage of 9-mer FRET substrate by CTSL1 (CTSL1 [1]; 9-mer sequence ALFFSSPPS (SEQ ID NO: 236)): comparable catalytic efficiency to the CTSL1_1 motif; also recorded: cleaved as a 9-mer FRET peptide
Cleavage by CTSK, lower level than the CTSL1_1 substrate (Cathepsin K (CTSK)): 15 ×
Relative efficiency of 30-mer peptide cleavage by CTSL1 (CTSL1 [2]): rapidly cleaved
+1 site product formation by CTSL1 (CTSL1 [2]; [6]): more rapidly formed
−1 site product formation by CTSL1 (CTSL1 [2]; [6]): did not
Relative efficiency of cleavage by hepsin (Hepsin): cleaved at a much slower rate than CTSL1_1

Bay 50-4798: IL-2 variant IL2/N88R, clinically tested as a low-toxicity version of IL-2
Selectivity of stimulated proliferation [3]: selectively stimulate the proliferation of activated T cells relative to NK cells
Levels of CD4+CD25+ T cells in clinical trials ([4]; cancer patients and HIV patients): increased the levels of CD4+CD25+ T cells
Safety and tolerability in clinical trials ([4]; human, in vivo): considerably safer and more tolerable than aldesleukin

KGGALFKSSFPGGPAGIGPLAQKLKSSGGS [Alu30-5]
Relative efficiency of 30-mer peptide cleavage by Factor Xa (Factor Xa): significant cleavage

RGSGGGPAGLYAQGSGGGPAGLYAQGGSGK [Alu30-2]
Relative efficiency of 30-mer substrate degradation/cleavage by MMP9 (MMP9): more efficient than the Alu30-1 peptide
Relative efficiency of 30-mer peptide degradation by FAPα (FAPα): efficiently cleaved
Relative efficiency of 30-mer peptide cleavage by thrombin (Thrombin): less susceptible to thrombin

SGGFPRSGGSFNPRTFGSKRKRRGSRGGGG [Alu30-19, reference compound]
Time to complete degradation by Factor Xa (Factor Xa): < 5 min
Time to cleavage at all three motifs by hepsin (Hepsin): ≤ 15 min
Apparent catalytic efficiency, hepsin (Hepsin; order of magnitude): ~10^5 M^−1s^−1

SGPLAQKLKSSGPAGLYAQALFKSSFPGSK [Alu30-16]
Activity toward the full set of five targeted enzymes [5]: generally high activity
Susceptibility to thrombin, Factor Xa, and hepsin [5]: lowest susceptibility
